Patent publication US20260049134A1 (UNIVERSITY OF FLORIDA RESEARCH FOUNDATION, published 2026)

T1: PTPRG-Fc (ECD of human PTPRG, aa 20-736, fused to human Fc gamma 1) (human, UniProt P23470 20-736)
T1 construct: Made in-house in Expi293 cells; Used in ELISA and SPR; also called recombinant PTPRG-Fc; PTRPG; not shown: human IgG1 Fc (Fc gamma 1) after the hinge
T1 sequence: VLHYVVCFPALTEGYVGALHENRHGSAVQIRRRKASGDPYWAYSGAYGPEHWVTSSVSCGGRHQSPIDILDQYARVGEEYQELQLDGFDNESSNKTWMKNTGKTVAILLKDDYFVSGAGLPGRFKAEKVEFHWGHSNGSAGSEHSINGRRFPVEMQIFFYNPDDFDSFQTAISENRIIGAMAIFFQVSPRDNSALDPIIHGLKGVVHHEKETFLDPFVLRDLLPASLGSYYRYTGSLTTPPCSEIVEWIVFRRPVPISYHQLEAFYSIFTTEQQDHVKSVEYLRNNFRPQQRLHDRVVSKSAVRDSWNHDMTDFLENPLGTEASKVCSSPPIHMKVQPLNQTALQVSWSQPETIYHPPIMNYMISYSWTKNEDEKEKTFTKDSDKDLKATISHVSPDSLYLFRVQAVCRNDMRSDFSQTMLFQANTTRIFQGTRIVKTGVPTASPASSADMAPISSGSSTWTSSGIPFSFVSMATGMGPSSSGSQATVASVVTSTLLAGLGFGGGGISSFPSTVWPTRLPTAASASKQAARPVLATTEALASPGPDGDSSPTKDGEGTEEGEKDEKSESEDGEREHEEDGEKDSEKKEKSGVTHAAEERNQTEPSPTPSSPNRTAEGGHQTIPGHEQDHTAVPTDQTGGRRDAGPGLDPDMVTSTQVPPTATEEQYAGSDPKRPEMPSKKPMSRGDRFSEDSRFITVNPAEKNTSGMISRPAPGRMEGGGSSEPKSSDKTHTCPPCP

T2: CADM1-His (Acro Biosystems) (human, UniProt Q9BY67 45-374)
T2 construct: Bought; also called CADM1/IGSF4A; not shown: His tag of the bought protein
T2 sequence: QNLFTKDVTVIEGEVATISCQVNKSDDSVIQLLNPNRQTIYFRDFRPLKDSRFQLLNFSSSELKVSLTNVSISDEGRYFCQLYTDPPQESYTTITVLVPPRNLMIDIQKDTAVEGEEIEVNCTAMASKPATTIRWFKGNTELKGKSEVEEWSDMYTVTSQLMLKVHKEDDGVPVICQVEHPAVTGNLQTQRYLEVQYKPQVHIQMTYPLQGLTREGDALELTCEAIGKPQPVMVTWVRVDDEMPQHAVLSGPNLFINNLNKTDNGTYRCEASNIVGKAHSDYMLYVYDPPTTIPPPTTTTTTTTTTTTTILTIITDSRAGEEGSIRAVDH


Key:
[1] = biological target: T3, PTPRG, endogenous in H929 multiple myeloma cells (human, UniProt P23470 20-1445); test: flow cytometry, H929 + CADM1 siRNA; None 0.89
T3 construct: Native protein on H929 cells (flow cytometry, siRNA knockdown) and in H929 lysates (IP/MS); also called phosphatase receptor type γ

[2] = biological target: T3, PTPRG, endogenous in H929 multiple …; test: flow cytometry, H929 + PTPRG siRNA (target knocked down); None 2.13
Protocol: Recombinant purified ECDs (50-150 ng) of each putative target protein were coated, incubated with 150 ng of the indicated primary antibody, and binding was detected using a peroxidase-conjugated anti-human Fab secondary antibody. Heatmap represents averages of technical triplicates. (8B) Target validation via siRNA knockdown. H929 cells were transfected with siRNA pools targeting the putative antibody targets ICAM1, CADM1, and PTPRG. Cells were then subjected to cognate IgG binding analysis via flow cytometry. (NT, non-targeting siRNA).
Staining protocol. Cells were harvested (5×10⁴ cells per sample), washed once with phosphate-buffered saline (PBS) at RT, and a second time with ice-cold FACS buffer (PBS, 0.5% BSA, 2 mM EDTA, 0.1% NaN₃). Cells were stained in 50 μL of primary antibody for 30 min on ice, washed twice with 100 μL FACS buffer, stained with 50 μL of diluted secondary antibody, washed two more times in FACS, and then resuspended in 50 μL FACS buffer. Samples were acquired on an Accuri C6 Plus or a BD FACSCanto II flow cytometer (both from BD Biosciences). Data were analyzed using FlowJo version 10 software. Primary antibodies: Fab (10 μg/mL), IgG1 (0.1 to 50 μg/mL), or 25 μL polyclonal Fabs from periplasmic extracts. Polyclonal Fabs were produced by diluting bacterial stocks by a factor of 100 in autoinduction media and incubating overnight to induce expression as previously described. […] Viability stains: DAPI (Cell Signaling Technology) or SYTOX AADvanced Dead Cell Stain (Thermo Fisher Scientific). Labeling: The panel of chimeric rabbit/human IgG1s was labeled using the Alexa Fluor 647 Labeling Kit (Thermo Fisher Scientific, #A20173) to facilitate single-step staining. Competition: Unlabeled IgG1s were added at saturating concentrations of 60 μg/mL to block the target receptors, incubating on ice for 30 min, followed by the addition of an equal volume of the Alexa Fluor 647 labeled antibody at 2 μg/mL, and the mixture was incubated on ice for another 30 min.

[3] = biological target: T1, PTPRG-Fc (ECD of human PTPRG, aa …); test: ELISA on coated protein
[4] = biological target: T2, CADM1-His (Acro Biosystems); test: ELISA on coated protein

T3 sequence (P23470 20-1445 limits assumed): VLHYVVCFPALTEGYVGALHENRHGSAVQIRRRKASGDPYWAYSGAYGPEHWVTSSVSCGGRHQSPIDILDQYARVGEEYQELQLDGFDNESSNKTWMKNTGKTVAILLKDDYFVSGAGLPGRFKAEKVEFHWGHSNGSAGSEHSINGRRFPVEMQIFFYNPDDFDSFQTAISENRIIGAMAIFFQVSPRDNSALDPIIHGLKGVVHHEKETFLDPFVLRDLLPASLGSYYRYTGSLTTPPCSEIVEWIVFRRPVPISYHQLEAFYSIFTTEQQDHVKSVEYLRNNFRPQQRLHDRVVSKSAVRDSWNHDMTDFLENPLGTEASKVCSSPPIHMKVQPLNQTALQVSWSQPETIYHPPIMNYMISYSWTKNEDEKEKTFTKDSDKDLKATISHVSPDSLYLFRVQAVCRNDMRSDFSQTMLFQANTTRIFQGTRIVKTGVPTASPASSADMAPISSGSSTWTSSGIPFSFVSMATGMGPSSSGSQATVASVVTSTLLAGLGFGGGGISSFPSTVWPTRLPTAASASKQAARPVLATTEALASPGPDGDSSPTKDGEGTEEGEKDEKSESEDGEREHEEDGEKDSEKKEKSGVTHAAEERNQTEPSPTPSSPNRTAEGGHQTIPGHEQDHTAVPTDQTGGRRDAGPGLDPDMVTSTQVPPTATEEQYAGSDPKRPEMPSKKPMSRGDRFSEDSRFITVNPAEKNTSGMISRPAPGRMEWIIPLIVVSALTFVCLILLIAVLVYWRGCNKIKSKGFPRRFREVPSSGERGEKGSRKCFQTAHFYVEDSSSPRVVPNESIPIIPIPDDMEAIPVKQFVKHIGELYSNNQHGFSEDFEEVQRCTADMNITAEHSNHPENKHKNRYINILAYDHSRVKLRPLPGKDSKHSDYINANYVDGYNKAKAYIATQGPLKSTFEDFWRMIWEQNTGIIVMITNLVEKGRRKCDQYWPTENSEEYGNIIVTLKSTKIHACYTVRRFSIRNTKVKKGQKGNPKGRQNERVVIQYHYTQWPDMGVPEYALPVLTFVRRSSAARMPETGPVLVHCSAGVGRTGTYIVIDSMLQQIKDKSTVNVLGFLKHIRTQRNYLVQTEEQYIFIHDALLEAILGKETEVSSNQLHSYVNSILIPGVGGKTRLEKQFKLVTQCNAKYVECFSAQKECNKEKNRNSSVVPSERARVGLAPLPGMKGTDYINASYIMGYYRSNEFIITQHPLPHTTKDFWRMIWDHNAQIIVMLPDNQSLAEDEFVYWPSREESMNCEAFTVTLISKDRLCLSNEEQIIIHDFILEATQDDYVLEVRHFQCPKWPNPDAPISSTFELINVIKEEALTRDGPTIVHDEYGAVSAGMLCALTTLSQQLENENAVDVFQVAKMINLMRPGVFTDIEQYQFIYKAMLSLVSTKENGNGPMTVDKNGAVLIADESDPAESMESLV

Binder | Cells stained (%) [1] [%] | Cells stained (%) [2] [%] | binding result [3] | binding result [4]
HW-42 chimeric rabbit-human IgG1 LA/LA/PG (antibody, V domains shown, Fc-silenced (L234A/L235A/P329G) IgG1, lambda; Alexa Fluor 647-labeled in single-step flow cytometry; Cluster C-1) VH: QSVKESEGGLFKPADTLTLTCTVSGFSLSSNEISWVRQAPGEGLEYIGIIDTGGRAYYAVWARSRSTITRNTNLNTVTLKMTSLTAADTATYFCARGGVDTEWYAFSSWGPGTLVTVPS VL: SFVLTQPASVQVNLGQTVSLTCTADTLSRRYASWYQQKPGQAPVLLIFRDTSRPSGVPDRFSGSSSGDTATLTISGAQAGDEADYYCATSDGSGSNYQYVFGGGTQLTVTG | 97.3 | 0.55 |  | 
HW-101 chimeric rabbit-human IgG1 LA/LA/PG (antibody, V domains shown, Fc-silenced (L234A/L235A/P329G) IgG1, lambda; Alexa Fluor 647-labeled in single-step flow cytometry; Cluster C-97) VH: QEQLVESGGRLVTPGTPLTLTCKASGFSLGKYDMSWVRQAPGKGLEWIGTIYAGSGSTWYASWAKGRFTISKTSTTVDLKMTSLTTEDTATYFCARDFLGVNSIWGPGTLVTISS VL: SFVLTQPASVQVNLGQTVSLTCTADTLSRSYASWYQQKPDQAPVLLIHRDTSRPSGVPDRFSGSNSGNTATLTISGAQAGDEADYYCATSDGSGSNFHFVFGGGTQLTVTG |  |  | no binding (tested: 150 ng IgG1 per well) | 
HW-25 chimeric rabbit-human IgG1 LA/LA/PG (antibody, V domains shown, Fc-silenced (L234A/L235A/P329G) IgG1, lambda; Alexa Fluor 647-labeled in single-step flow cytometry; Cluster C-1) VH: QSLEESGGRLVTPGTPLTLTCTVSGFSLSSYAMGWVRQAPGKGLEWIGIIDSRGSTYYATWAKGRFTISKTSTTVDLKITSPTTEDTATYFCAREDSYYYDSFNLWGPGTLVTVSS VL: SFVLTQPASVQVNLGQTVSLTCTADTLSRRYASWYQQKPGQAPVLLIYRDTSRPSGVPDRFSGSSSGNTATLTISGAQAGDEADYYCATSDGSGSSYQCVFGGGTQLTVTG | 97.7 | 0.87 |  | 
HW-113 chimeric rabbit-human IgG1 LA/LA/PG (antibody, V domains shown, Fc-silenced (L234A/L235A/P329G) IgG1, lambda; Alexa Fluor 647-labeled in single-step flow cytometry) VH: QKQLVESGGGLVQPGGSLTLTCTVSGFSLNKYYMGWFRQAPGKGLEWIGVISRSGDTYYSSWAKGRFTISKASTTVDLRITSPTTEDTATYFCARDASSPGFHGDRLDLWGQGTLVTVSS VL: SFVLTQPASVQVNLGQTVSLTCTADTLSRSYASWYQQKPGQAPVLLIYRDTSRPSGVPDRFSGSSSGNTATLTISGAQAGDEADYYCATSDGIGSNYLWVFGGGTQLTVTG |  |  | no binding (tested: 150 ng IgG1 per well) | no binding (tested: 150 ng IgG1 per well)
HW-97 chimeric rabbit-human IgG1 LA/LA/PG (antibody, V domains shown, Fc-silenced (L234A/L235A/P329G) IgG1, lambda; Alexa Fluor 647-labeled in single-step flow cytometry; Prototype of cluster C-97) VH: QKQLVESGGRLVTPGTPLTLTCTVTGIDLSSHGMSWVRQAPGKGLEWIGVIYPSGSTWYASWARGRFTISKTSTTVDLKMTSLTTEDTATHFCARGDVGGADNNIWGPGTLVTVSS VL: SFVLTQPASVQVDLGQTVSLTCTAETLSRSYASWYQQKPGQAPVLLIYRDTSRPSGVPDRFSGSSSGNTATLTISGAQAGDEADYYCATSDGSGSSYQYVFGGGTQLTVTG |  |  | no binding (tested: 150 ng IgG1 per well) | 
HW-8 chimeric rabbit-human IgG1 LA/LA/PG (antibody, V domains shown, Fc-silenced (L234A/L235A/P329G) IgG1, kappa; Alexa Fluor 647-labeled in single-step flow cytometry; Cluster C-45) VH: QSLEESGGRLVTPGTPLTLTCTVSGFSLSSYAMSWVRQAPGKGLEWIGAISTGGSTTYASWAKGRFTISKTSSTTVDLKMTSLTTEDTATYFCVRHFRLWGPGTLVTISS VL: QVLTQTPSSVSAAVGGTVTIKCQASQSIGSALAWFQQKPGQRPKLLIYRASNLASGVPSRFKGSGSGTEFALTISGVQREDAATYYCLGGAAAVWAFGAGTNVEIKR |  |  | no binding (tested: 150 ng IgG1 per well) | no binding (tested: 150 ng IgG1 per well)
TH9-0022 (antibody, human IgG1, kappa, L234A L235A, V domains shown, also called TH9-022; negative control IgG1) VH: QSLEESGGRLVTPGTPLTLTCTVSGFSLSSYAMNWVRQAPGKGLEWIGIINSYGSTYYASWAKGRFTISKTSTTVDLKITSPTTEDTATYFCARVTYDSYGYGYAPYGMDLWGPGTLVTVSS VL: LVMTQTPSSTSNAVGGTVTIKCQASQSIGNVLAWYQQKPGQPPKLLIYAASTLASGVPSRVGGSRSGTEYTLTISGVQREDAATYYCLGSDSDSDIAFGGGTELEILR |  |  | no binding (tested: 150 ng IgG1 per well) | no binding (tested: 150 ng IgG1 per well)

More lines, main results first:

Cells stained (%) [1] [%] | Cells stained (%) [2] [%] | Binder | binding result [3] | binding result [4]
99.3 | 1.25 | HW-17 chimeric rabbit-human IgG1 LA/LA/PG (antibody, V domains shown, Fc-silenced (L234A/L235A/P329G) IgG1, lambda; Alexa Fluor 647-labeled in single-step flow cytometry; Cluster C-1) VH: QSLGESRGRLVTPDETLTLTCTVSGIDLSSNAMSWVRQAPGEGLEWIGTINTGGRAYYASWAKGRFTISRTSTTVDLKMTSLTTEDTATYFCARERYSDGRAYDIWGPGTLVTISS VL: SFVLTQPASVQVNLGQTVSLTCTADTLSRRYASWYQQKPGQAPVLLIYTDSNRPSGIPDRFSGSSSGNTATLTISGAQAGDEADYYCATDDGSGSIYQYVFGGGTQLTVTG |  | no binding (tested: 150 ng IgG1 per well)
98.7 | 0.87 | HW-70 chimeric rabbit-human IgG1 LA/LA/PG (antibody, V domains shown, Fc-silenced (L234A/L235A/P329G) IgG1, lambda; Alexa Fluor 647-labeled in single-step flow cytometry; Cluster C-1) VH: QSLEESGGRLVTPGTPLTLTCTVSGFSLSSNAMSWVRQAPGKGLEWIGTIDGYGYTYYASWAKGRFTVSKTSTTVDLKITSPTTEDTATYFCAREIYLGSNFWGPGTLVTISS VL: SFVLTQPASVQVNLGQTVSLTCTADTLSRRYASWYQQKPGQAPVLLIYRDTSRPSGVPDRFSGSSSGNTATLTISGAQAGDEADYYCATADGSGSSYQFVFGGGTQLTVTG |  | 
99.3 | 1.2 | HW-1 chimeric rabbit-human IgG1 LA/LA/PG (antibody, V domains shown, Fc-silenced (L234A/L235A/P329G) IgG1, lambda; Alexa Fluor 647-labeled in single-step flow cytometry; Prototype of cluster C-1) VH: QSLEESGGGLFKPTDTLTLTCTASGFSLGSSYAISWVRQAPGKELEWIGTIDSGRAYYARWAKSRSTITRNTNENTVTLKMTSLTAADTATYFCARDLIPTYSQDIWGPGTLVTISS VL: SFVLTQPASVQVNLGQTVSLTCTADTLSRRYASWYQQKPGQAPVLLIYRDTSRPSGVPDRFSGSSSGNTATLTISGAQAGDEADYYCATSDGSGNSYQYVFGGGTQLTVTS |  | no binding (tested: 150 ng IgG1 per well)
